Assay results: US20220031813A1, “INHIBITOR OF EXTRACELLULAR TRAP FORMATION IN LEUKOCYTES” (priority 2013, published 2022)

Assays:
[1] = system: human neutrophils; assay: Specificity experiment: inhibition of NETs formation by DNA concentration in the culture supernatant; type: cell-based; details: n=3, p<0.01, FIG. 10
Protocol: About 1 hour after the isolation of the neutrophils described in “1. Method of isolating human neutrophils” in Example 2, the neutrophils were pre-treated. On an 8-well microslide (Cat. No. ib 80826 Ibidi (registered trademark)), the neutrophils were seeded in 400 μl of culture DMEM+2% human serum Alb (serum human albumin; Product No. A9080 Sigma+4 mM L-glutamine) at a rate of about 1.0×10^5 cells/well, and stimulated with PMA (final concentration: 25 nM, stock: 10 mM in DMSO, Sigma Prod No. P8139). At thirty minutes before the stimulation, and at every one hour or every two hours after the stimulation, 200 μg/ml of human lactoferrin (stock: 100 mg/ml, 200 μl; Cat. No. SIGL6793, SIGMA) was added to perform inhibition [FIG. 2].
The culture supernatant was recovered and centrifuged at 200×g for 10 minutes, and the supernatant was transferred to a new microscopic centrifuge tube. The DNA amount was measured by use of Picogreen dsDNA assay reagent (P11496 Invitrogen) in accordance with an accompanying protocol. Treatment with human lactoferrin at one hour and two hours after the stimulation was a similar effect to the prior pre-treatment, the DNA concentration in the culture supernatant decreased, resulting in suppression of the release of the DNAs by the NETs [FIG. 2]. […]

[2] = bovine proteins; cited from earlier work
[3] = system: human neutrophils; assay: Scanning electron microscopy of neutrophils stimulated to form NETs; type: cell-based; details: pre-treatment 200 μg/ml, 3 hours after stimulation
Protocol: The observation by a scanning electron microscope was performed as follows. Eosinophil granulocytes were seeded on a glass cover or a glass bottom dish for cell culture in the number of 1×10^6 and pre-treated with 200 μg/ml of human lactoferrin or were not pre-treated before stimulation for NETs. Three hours later, the sample was pre-immobilized with 0.1 M phosphoric acid buffer (pH: 7.4) containing 2% glutaraldehyde at 4° C. for 1 hour. Next, the sample was post-immobilized with 0.1 M phosphoric acid buffer (pH: 7.4) containing 1% osmium tetroxide at 4° C. for 1 hour. After the immobilization, the sample was washed with 60% ethanol, with 70% ethanol, with 80% ethanol and with 95% ethanol while being gently shaken for 5 to 10 minutes, and immersed twice in 100% ethanol for 5 to 10 minutes to be dehydrated. Critical point drying was performed by substitution with isoamyl acetate for 10 to 15 minutes. The sample were covered with a layer of sublimated osmium tetroxide by use of an osmium plasma coating device (OPC80N, Filgen, Inc.) and observed by a scanning electron microscope (JSM-6320F, JEOL, Ltd.). In the case where the neutrophils were not stimulated, the neutrophils were kept spherical and no extracellular fiber was recognized. In the case where the neutrophils were stimulated with PMA, the cells were broken and many fiber components were formed.

[4] = system: human neutrophils; assay: DNA concentration in the culture supernatant, lactoferrin added after PMA stimulation; type: cell-based; details: p<0.001
Protocol: From heathy volunteer, 15 ml to 20 ml of peripheral blood was sampled for one cycle of experiment with an EDTA-containing syringe (needle: 18 to 22 G). After the blood sampling, 3 ml of mono-poly resolving medium (Cat No. DSBN100, DS Pharma Biomedical Co., Ltd.) contained in 15 ml conical tube, and then 3.5 ml of the whole blood were gently stacked in the lower-layer mono-poly resolving medium. The 15 ml conical tube was centrifuged at room temperature (15 to 30° C.) at 400×g for 20 minutes by a swing-type centrifuge, and then the conical tube was taken out gently. A brown plasma layer in the top layer and a lymphocyte/monocyte layer immediately below the brown plasma layer were removed by an aspirator or the like. A transparent layer below the lymphocyte/monocyte layer was removed as much as possible. A pale pink layer below the transparent layer was taken out by a Pasteur pipette. […]
The culture supernatant was recovered and centrifuged at 200×g for 10 minutes, and the supernatant was transferred to a new microscopic centrifuge tube. The DNA amount was measured by use of Picogreen dsDNA assay reagent (P11496 Invitrogen) in accordance with an accompanying protocol. […]

[5] = system: human neutrophils; assay: DNA concentration in the culture supernatant (Picogreen) after pre-treatment; type: cell-based; details: pre-treatment 2, 20, 200 μg/ml, 3 hours after stimulation; FIG. 1-D
[6] = system: human neutrophils; assay: Rate of NETs formation in PMA-stimulated neutrophils after pre-treatment, counted by confocal microscopy; type: cell-based

B1: angiogenin: bovine milk protein, known as a tumor angiogenesis factor, eluted from SP-Sepharose column (protein, UniProt P10152 24-148, looked up)
Angiogenin-1: AQDDYRYIHFLTQHYDAKPKGRNDEYCFNMMKNRRLTRPCKDRNTFIHGNKNDIKAICEDRNGQPYRGDLRISKSEFQITICKHKGGSSRPPCRYGATEDSRVIVVGCENGLPVHFDESFITPRH
inhibition of the formation of the NETs [1]: Neither lactoperoxidase nor angiogenin inhibited | Isoelectric point [2]: 9.5

B2: human lactoferrin: human lactoferrin, Cat No. SIGL6793, SIGMA; called human neutrophil-derived lactoferrin (protein, UniProt P02788 20-710, looked up)
Lactotransferrin: GRRRSVQWCAVSQPEATKCFQWQRNMRKVRGPPVSCIKRDSPIQCIQAIAENRADAVTLDGGFIYEAGLAPYKLRPVAAEVYGTERQPRTHYYAVAVVKKGGSFQLNELQGLKSCHTGLRRTAGWNVPIGTLRPFLNWTGPPEPIEAAVARFFSASCVPGADKGQFPNLCRLCAGTGENKCAFSSQEPYFSYSGAFKCLRDGAGDVAFIRESTVFEDLSDEAERDEYELLCPDNTRKPVDKFKDCHLARVPSHAVVARSVNGKEDAIWNLLRQAQEKFGKDKSPKFQLFGSPSGQKDLLFKDSAIGFSRVPPRIDSGLYLGSGYFTAIQNLRKSEEEVAARRARVVWCAVGEQELRKCNQWSGLSEGSVTCSSASTTEDCIALVLKGEADAMSLDGGYVYTAGKCGLVPVLAENYKSQQSSDPDPNCVDRPVEGYLAVAVVRRSDTSLTWNSVKGKKSCHTAVDRTAGWNIPMGLLFNQTGSCKFDEYFSQSCAPGSDPRSNLCALCIGDEQGENKCVPNSNERYYGYTGAFRCLAENAGDVAFVKDVTVLQNTDGNNNEAWAKDLKLADFALLCLDGKRKPVTEARSCHLAMAPNHAVVSRMDKVERLKQVLLHQQAKFGRNGSDCPDKFCLFQSETKNLLFNDNTECLARLHGKTTYEKYLGPQYVAGITNLKKCSTSPLLEACEFLRK
fiber components of the NETs by scanning electron microscope [3]: form such fiber components in bundles | DNA concentration in the culture supernatant ([4]; 200 μg/ml added one hour after PMA stimulation): decreased | DNA concentration in the culture supernatant ([4]; 200 μg/ml added two hours after PMA stimulation): decreased | DNA concentration in the culture supernatant [5]: decreased in a concentration-dependent manner | rate of the NETs formed at plateau, compared with stimulation merely with PMA ([6]; pre-treatment 2 μg/ml for 30 minutes, then PMA 25 nM): half | rate of the NETs formed at plateau, compared with stimulation merely with PMA ([6]; pre-treatment 20 μg/ml for 30 minutes, then PMA 25 nM): half | formation of the NETs at plateau, compared with stimulation merely with PMA ([6]; pre-treatment 200 μg/ml for 30 minutes, then PMA 25 nM): ¼ | release of the DNAs to the outside of the cells (SYTOX green images) ([6]; pre-treatment 200 μg/ml, FIG. 1-C): inhibited | inhibitory effect on the formation of the NETs ([6]; pre-treatment with 2, 20 or 200 μg/ml, FIG. 1-A, 1-B): observed similarly to the bovine lactoferrin
